Non-standard residues stand in square brackets, D forms with d. pT = C[C@@H](OP(=O)(O)O)[C@H](N)C(=O)O

The target in the test is T1, 14-3-3σ (UniProt P31947 1-248, partial β-mercaptoethanol capping of Cys38 (+76 Da adduct)).
T1 construct: 14-3-3σ (14-3-3 protein sigma); The His-tag is TEV protease cleavable; Observed predominantly as a dimer by native MS; also called recombinant 14-3-3σ; receptor (R)
T1 sequence (looked up): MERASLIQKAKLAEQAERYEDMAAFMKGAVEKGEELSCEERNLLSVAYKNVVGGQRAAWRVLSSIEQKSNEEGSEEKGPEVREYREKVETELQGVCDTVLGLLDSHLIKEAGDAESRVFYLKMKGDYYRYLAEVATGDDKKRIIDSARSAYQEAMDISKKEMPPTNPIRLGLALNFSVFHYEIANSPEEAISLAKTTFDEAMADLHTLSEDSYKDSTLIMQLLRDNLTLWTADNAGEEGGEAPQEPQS
Nature of the test: native MS; 14-3-3σ 5 μM (monomer) with 25 μM phosphopeptide, no ligand (R:P:L 1:5:0); 50 mM ammonium acetate pH 6.8, 0.25% DMSO. Conditions: both partners purified.

B1: ERα(581–595) phosphopeptide (peptide)
peptide: Ac-KYYITGEAEGFPA[pT]V-OH
notes: estrogen receptor ERα, C-terminal fragment, residues 581-595; also called C-terminal fragment of estrogen receptor ERα; source: synthetic peptide, bought: Synpeptide Ltd (>95% purity)
On to B1, for which the stoichiometry N (as a rule, the number of molecules, sites or subunits per partner or assembly) turned out to be 2 peptide per 14-3-3σ dimer.

The values are drawn from article PMC8372317, “Discovering protein–protein interaction stabilisers by native mass spectrometry†” (Chemical Science, 2021).
